What was measured:
[1] = target: T1, human ICOS on human T cells (human, UniProt Q9Y6W8 21-167); assay: flow cytometry, activated human CD8 T cells, percent FITC positive, mean of donors
T1 construct: endogenous receptor on primary cells; also called ICOS on CD4+ and CD8+ T cells of healthy human donors
T1 sequence: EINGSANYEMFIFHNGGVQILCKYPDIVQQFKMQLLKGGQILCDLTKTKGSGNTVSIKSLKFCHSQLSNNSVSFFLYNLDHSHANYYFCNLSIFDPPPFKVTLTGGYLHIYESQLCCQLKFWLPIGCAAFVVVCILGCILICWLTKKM
Protocol: (§1) Either naive and/or activated CD3+ T cells were re-suspended in PBS with 0.1% BSA (FACS Buffer) containing Human FcR Blocking Solution at 2×10⁶ cells/mL (5 μl FcR Blocking Solution+[…] FACS Buffer per 1 mL). At a concentration of 2×10⁵ cells/well, 100 μl cells were placed into 2 mL 96 well Assay Blocks and incubated at room temperature for 15 minutes. During the incubation, a titration of the binding antibodies, anti-ICOS (H2L5 hIgG4PE) or IgG4 Isotype Control antibody was prepared as a 2× concentration. […] Following the binding incubation, cells were washed twice in 1 mL of FACS buffer, centrifuging at 400×g for 5 minutes at room temperature.
(§2) Data acquisition and compensation were performed on BD FACS instruments, LSR Fortessa X-20 or FACS Canto II using BD Diva (ver. 8.0) software. Data analysis employed Flow Jo software (ver.10.0.8r1). Results are reported as both MFI (Median Fluorescence Intensity) and Percent of cells positive for human IgG kappa light chain FITC staining out of the total live cells or appropriate parent population. EC50s were determined using Graphpad Prism 5 software (ver. 5.04) with non-linear regression of transformed data (X=(log(X)) using a variable slope with 4 parameters (log(Agonist) vs. response—Variable slope).

[2] = target: T1, human ICOS on human T cells; assay: flow cytometry, activated human CD8 T cells, FITC MFI, mean of donors
Protocol: (§3) Binding of H2L5 hIgG4PE was assessed in both naive and activated CD3+ T cells.
as §1, §2

[3] = target: T1, human ICOS on human T cells; assay: flow cytometry, activated human CD8 T cells, percent FITC positive, donor 1124F36
Protocol: as §3, §1, §2

[4] = target: T1, human ICOS on human T cells; assay: flow cytometry, activated human CD8 T cells, percent FITC positive, donor 1149M52
Protocol: as §3, §1, §2

[5] = target: T1, human ICOS on human T cells; assay: cell-based or functional assay
[6] = target: T1, human ICOS on human T cells; assay: flow cytometry, activated human CD4 T cells, percent FITC positive, donor 1173F42
Protocol: as §3, §1, §2

[7] = target: T1, human ICOS on human T cells; assay: flow cytometry, activated human CD4 T cells, FITC MFI, mean of donors
Protocol: as §1, §2

[8] = target: T1, human ICOS on human T cells; assay: flow cytometry, activated human CD4 T cells, percent FITC positive, donor 1123F59
Protocol: as §3, §1, §2

EC50 [1]: 0.692 µg/mL
EC50 [2]: 0.525 µg/mL
EC50 [3]: 0.619 µg/mL
EC50 [4]: 0.547 µg/mL
EC50, CD4+CD25+, PBMC activation assay, donor 185M45, 24 hr [5]: 2.4 µg/mL
EC50, CD4+CD25+, PBMC activation assay, donor 185M45, 48 hr [5]: 0.5 µg/mL
EC50, CD4+CD25+, PBMC activation assay, donor 1124F36, 24 hr [5]: 0.6 µg/mL
EC50, CD4+CD25+, PBMC activation assay, donor 1124F36, 48 hr [5]: 0.6 µg/mL
EC50, CD4+CD25+, PBMC activation assay, donor 1136F50, 24 hr [5]: 0.3 µg/mL
EC50, CD4+CD25+, PBMC activation assay, donor 1136F50, 48 hr [5]: 0.6 µg/mL
EC50, CD4+CD25+, PBMC activation assay, donor 1149M52, 24 hr [5]: 0.6 µg/mL
EC50, CD4+CD25+, PBMC activation assay, donor 1149M52, 48 hr [5]: 0.4 µg/mL
EC50, CD4+CD69+, PBMC activation assay, donor 185M45, 24 hr [5]: 0.8 µg/mL
EC50, CD4+CD69+, PBMC activation assay, donor 1124F36, 24 hr [5]: 1.1 µg/mL
EC50, CD4+CD69+, PBMC activation assay, donor 1124F36, 48 hr [5]: 1.1 µg/mL
EC50, CD4+CD69+, PBMC activation assay, donor 1136F50, 24 hr [5]: 0.5 µg/mL
EC50, CD4+CD69+, PBMC activation assay, donor 1136F50, 48 hr [5]: 0.4 µg/mL
EC50, CD4+CD69+, PBMC activation assay, donor 1149M52, 24 hr [5]: 0.5 µg/mL
EC50, CD4+CD69+, PBMC activation assay, donor 1149M52, 48 hr [5]: 0.4 µg/mL
EC50, CD4+Ki67+, PBMC activation assay, donor 185M45, 48 hr [5]: 0.6 µg/mL
EC50, CD4+Ki67+, PBMC activation assay, donor 1124F36, 48 hr [5]: 0.8 µg/mL
EC50, CD4+Ki67+, PBMC activation assay, donor 1149M52, 48 hr [5]: 0.5 µg/mL
EC50, CD4+OX40+, PBMC activation assay, donor 185M45, 24 hr [5]: 1.6 µg/mL
EC50, CD4+OX40+, PBMC activation assay, donor 1124F36, 24 hr [5]: 0.6 µg/mL
EC50, CD4+OX40+, PBMC activation assay, donor 1124F36, 48 hr [5]: 1.2 µg/mL
EC50, CD4+OX40+, PBMC activation assay, donor 1136F50, 24 hr [5]: 0.2 µg/mL
EC50, CD4+OX40+, PBMC activation assay, donor 1136F50, 48 hr [5]: 0.4 µg/mL
EC50, CD4+OX40+, PBMC activation assay, donor 1149M52, 24 hr [5]: 0.6 µg/mL
EC50, CD4+OX40+, PBMC activation assay, donor 1149M52, 48 hr [5]: 0.4 µg/mL
EC50, CD8+CD25+, PBMC activation assay, donor 185M45, 24 hr [5]: 2 µg/mL
EC50, CD8+CD25+, PBMC activation assay, donor 185M45, 48 hr [5]: 0.5 µg/mL
EC50, CD8+CD25+, PBMC activation assay, donor 1124F36, 24 hr [5]: 0.6 µg/mL
EC50, CD8+CD25+, PBMC activation assay, donor 1124F36, 48 hr [5]: 0.5 µg/mL
EC50, CD8+CD25+, PBMC activation assay, donor 1136F50, 24 hr [5]: 0.4 µg/mL
EC50, CD8+CD25+, PBMC activation assay, donor 1136F50, 48 hr [5]: 0.7 µg/mL
EC50, CD8+CD25+, PBMC activation assay, donor 1149M52, 24 hr [5]: 1 µg/mL
EC50, CD8+CD25+, PBMC activation assay, donor 1149M52, 48 hr [5]: 0.4 µg/mL
EC50, CD8+CD69+, PBMC activation assay, donor 185M45, 24 hr [5]: 1.2 µg/mL
EC50, CD8+CD69+, PBMC activation assay, donor 185M45, 48 hr [5]: 0.5 µg/mL
EC50, CD8+CD69+, PBMC activation assay, donor 1124F36, 24 hr [5]: 0.8 µg/mL
EC50, CD8+CD69+, PBMC activation assay, donor 1124F36, 48 hr [5]: 1.1 µg/mL
EC50, CD8+CD69+, PBMC activation assay, donor 1136F50, 24 hr [5]: 0.5 µg/mL
EC50, CD8+CD69+, PBMC activation assay, donor 1136F50, 48 hr [5]: 0.6 µg/mL
EC50, CD8+CD69+, PBMC activation assay, donor 1149M52, 24 hr [5]: 0.6 µg/mL
EC50, CD8+CD69+, PBMC activation assay, donor 1149M52, 48 hr [5]: 0.4 µg/mL
EC50, CD8+Ki67+, PBMC activation assay, donor 185M45, 48 hr [5]: 0.4 µg/mL
EC50, CD8+Ki67+, PBMC activation assay, donor 1124F36, 48 hr [5]: 0.7 µg/mL
EC50, CD8+Ki67+, PBMC activation assay, donor 1149M52, 48 hr [5]: 0.3 µg/mL
EC50, CD8+OX40+, PBMC activation assay, donor 185M45, 24 hr [5]: 1.6 µg/mL
EC50, CD8+OX40+, PBMC activation assay, donor 1124F36, 24 hr [5]: 2.4 µg/mL
EC50, CD8+OX40+, PBMC activation assay, donor 1124F36, 48 hr [5]: 0.5 µg/mL
EC50, CD8+OX40+, PBMC activation assay, donor 1136F50, 24 hr [5]: 0.3 µg/mL
EC50, CD8+OX40+, PBMC activation assay, donor 1136F50, 48 hr [5]: 0.5 µg/mL
EC50, CD8+OX40+, PBMC activation assay, donor 1149M52, 24 hr [5]: 1.5 µg/mL
EC50, CD8+OX40+, PBMC activation assay, donor 1149M52, 48 hr [5]: 0.3 µg/mL
EC50, IFN-γ, PBMC activation assay, donor 185M45, 24 hr [5]: 0.3 µg/mL
EC50, IFN-γ, PBMC activation assay, donor 185M45, 48 hr [5]: 0.7 µg/mL
EC50, IFN-γ, PBMC activation assay, donor 1124F36, 24 hr [5]: 0.3 µg/mL
EC50, IFN-γ, PBMC activation assay, donor 1124F36, 48 hr [5]: 0.5 µg/mL
EC50, IFN-γ, PBMC activation assay, donor 1136F50, 24 hr [5]: 0.4 µg/mL
EC50, IFN-γ, PBMC activation assay, donor 1136F50, 48 hr [5]: 1.5 µg/mL
EC50, IFN-γ, PBMC activation assay, donor 1149M52, 24 hr [5]: 0.2 µg/mL
EC50, IFN-γ, PBMC activation assay, donor 1149M52, 48 hr [5]: 0.6 µg/mL
EC50, IL-6, PBMC activation assay, donor 185M45, 24 hr [5]: 0.7 µg/mL
EC50, IL-6, PBMC activation assay, donor 185M45, 48 hr [5]: 0.8 µg/mL
EC50, IL-6, PBMC activation assay, donor 1136F50, 24 hr [5]: 0.7 µg/mL
EC50, IL-6, PBMC activation assay, donor 1136F50, 48 hr [5]: 1.1 µg/mL
EC50, IL-6, PBMC activation assay, donor 1149M52, 24 hr [5]: 0.2 µg/mL
EC50, IL-6, PBMC activation assay, donor 1149M52, 48 hr [5]: 0.3 µg/mL
EC50, IL-10, PBMC activation assay, donor 185M45, 24 hr [5]: 0.7 µg/mL
EC50, IL-10, PBMC activation assay, donor 185M45, 48 hr [5]: 0.8 µg/mL
EC50, IL-10, PBMC activation assay, donor 1124F36, 24 hr [5]: 0.7 µg/mL
EC50, IL-10, PBMC activation assay, donor 1124F36, 48 hr [5]: 0.6 µg/mL
EC50, IL-10, PBMC activation assay, donor 1136F50, 24 hr [5]: 1.7 µg/mL
EC50, IL-10, PBMC activation assay, donor 1136F50, 48 hr [5]: 1.3 µg/mL
EC50, IL-10, PBMC activation assay, donor 1149M52, 24 hr [5]: 0.5 µg/mL
EC50, IL-10, PBMC activation assay, donor 1149M52, 48 hr [5]: 0.6 µg/mL
EC50, IL-17a, PBMC activation assay, donor 185M45, 24 hr [5]: 0.8 µg/mL
EC50, IL-17a, PBMC activation assay, donor 185M45, 48 hr [5]: 1.1 µg/mL
EC50, IL-17a, PBMC activation assay, donor 1124F36, 24 hr [5]: 0.6 µg/mL
EC50, IL-17a, PBMC activation assay, donor 1124F36, 48 hr [5]: 0.8 µg/mL
EC50, IL-17a, PBMC activation assay, donor 1136F50, 24 hr [5]: 1.4 µg/mL
EC50, IL-17a, PBMC activation assay, donor 1136F50, 48 hr [5]: 1.6 µg/mL
EC50, IL-17a, PBMC activation assay, donor 1149M52, 24 hr [5]: 0.7 µg/mL
EC50, IL-17a, PBMC activation assay, donor 1149M52, 48 hr [5]: 1 µg/mL
EC50, TNF-α, PBMC activation assay, donor 185M45, 48 hr [5]: 0.5 µg/mL
EC50, TNF-α, PBMC activation assay, donor 1124F36, 48 hr [5]: 0.3 µg/mL
EC50, TNF-α, PBMC activation assay, donor 1136F50, 48 hr [5]: 0.3 µg/mL
EC50, TNF-α, PBMC activation assay, donor 1149M52, 48 hr [5]: 0.2 µg/mL
EC50 [6]: 0.612 µg/mL
EC50 [7]: 0.977 µg/mL
EC50 [8]: 0.853 µg/mL
B1: H2L5 hIgG4PE (antibody)
heavy: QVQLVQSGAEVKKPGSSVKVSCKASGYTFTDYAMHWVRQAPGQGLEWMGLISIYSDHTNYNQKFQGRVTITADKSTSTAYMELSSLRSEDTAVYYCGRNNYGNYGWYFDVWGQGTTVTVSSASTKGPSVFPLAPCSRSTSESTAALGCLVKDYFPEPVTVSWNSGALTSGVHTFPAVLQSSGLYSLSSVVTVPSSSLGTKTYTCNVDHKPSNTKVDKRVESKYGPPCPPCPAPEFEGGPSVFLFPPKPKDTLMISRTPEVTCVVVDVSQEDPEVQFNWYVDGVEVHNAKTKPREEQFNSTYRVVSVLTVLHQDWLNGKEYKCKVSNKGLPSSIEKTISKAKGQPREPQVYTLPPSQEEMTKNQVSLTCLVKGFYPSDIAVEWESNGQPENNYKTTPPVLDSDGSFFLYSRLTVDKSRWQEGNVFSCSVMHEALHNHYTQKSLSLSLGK
light: EIVLTQSPATLSLSPGERATLSCSASSSVSYMHWYQQKPGQAPRLLIYDTSKLASGIPARFSGSGSGTDYTLTISSLEPEDFAVYYCFQGSGYPYTFGQGTKLEIKRTVAAPSVFIFPPSDEQLKSGTASVVCLLNNFYPREAKVQWKVDNALQSGNSQESVTEQDSKDSTYSLSSTLTLSKADYEKHKVYACEVTHQGLSSPVTKSFNRGEC
notes: also called 422 H2L5 hIgG4PE; H2L5 IgG4PE; copies: 2 + 2

Source: patent US20200140551A1 (GlaxoSmithKline, published 2020)
